Experimental data taken from patent US20240336661A1, “PEPTIDES DERIVED FROM RUMINOCOCCUS TORQUES” (University of Copenhagen, priority 2021, published 2024).

Assays:
Caco-2 cell line = test: Intestinal barrier gene expression in Caco-2 cells (hypoxia/reoxygenation); assay type: cell-based, human; details: Caco-2, q-PCR
Method: FIG. 13. […] The cells were treated with various doses of RUCILP2, and cells were collected for q-PCR quantification on indicated genes. For integrin inhibitor treatment, cells were treated with 10 uM of cRGDyK (Selleckchem, #S7844) for 10 minutes and washed with PBS before treated with RUCILP2. Data are presented as mean+/−SEM of one representative experiment done in technical triplicate. Statistical significance was determined by unpaired two-tailed Student's t-test. *, p<0.05 vs 0 nM RUCILP2.
Commercially available Caco-2 cells (ATCC, #HTB-37) were seeded on 12-well plates under EMEM medium (Eagle's Minimum Essential Medium, ATCC, #30-2003), supplemented with 20% FBS (Fetal Bovine Serum, Fisher Scientific, #11550356) and 1% Penicillin-Streptomycin (Fisher Scientific, #11548876). Cell cultures were maintained in a humidified chamber with 5% CO2 at 37° C., and culture media were changed every 2-3 days.
At 70% confluence, to induce the hypoxia/reoxygenation (H/R) cell culture model, Caco-2 cells were cultured in EMEM medium (glucose and FBS free) and exposed to hypoxia conditions (94% N2, 5% C02 and 1% O2) at 37° C. for 120 minutes. Next, cells were treated for 24 hours with indicated concentrations of recombinant RUCILP2 or commercial recombinant irisin (Sigma, #SRP8039-10UG and Phoenix pharmaceuticals, #067-29A) or PBS immediately at the beginning of reoxygenation. […]

perfused rat colon = test: Hormone release in the isolated perfused rat colon
Description: (§1) FIG. 14. Recombinant RUCILP2 stimulates glucagon like peptide-1 (GLP-1) secretion in perfused rat colon when RUCILP2 is perfused through the luminal route. Left, GLP-1 secretion from the isolated perfused rat colon in the presence of RUCILP2, means±SEM, n=6 in each group. Right, baseline subtracted total GLP-1 output during 10-min (minutes 12-21) luminal infusions. **, p<0.01 using Student's t test.
as §1, with “15.” for “14.”, “Peptide-YY (PYY)” for “glucagon like peptide-1 (GLP-1)”, “PYY” for “GLP-1”
as §1, with “16.” for “14.”, “somatostatin” for “glucagon like peptide-1 (GLP-1)”, “Somatostatin” for “GLP-1”, “*, p<0.05” for “**, p<0.01”
Animals: Male Wistar rats (˜250 g) were obtained from Janvier (Le Genest-Saint-Isle, France) and housed with two to four rats per cage. Rats were allowed one week of acclimatization kept on a 12:12 h light/dark cycle with ad libitum access to water and standard chow.
Isolation and perfusion of the proximal rat colon: At the day of experiment, non-fasted rats were anaesthetized with a subcutaneous injection of Hypnorm/Midazolam (0.0158 mg fentanyl citrate+0.5 mg fluanisone+0.25 mg midazolam/100 g). When lack of reflexes was established, rats were placed on a heating plate (37° C.) and the abdominal cavity opened. […] A plastic tube was placed in the lumen of the colon, and the colon was gently flushed with isotonic saline (room temperature) to remove luminal contents. Throughout the experimental protocol, a constant luminal flow of saline was applied via a syringe pump (0.15 ml/min). […] A metal catheter was inserted into vena portae to collect the venous effluent. […] As an indicator of health of the colon, perfusion pressure was monitored throughout the experiment. […]
Hormone measurement: Peptide hormones were measured using in-house radioimmunoassays: total GLP-1 (the sum of 7-36NH2, 9-36NH2 and potential mid-terminal cleaved fragments) was measured using a C-terminal specific antibody targeting amidated forms of GLP-1 (code no. 89390). Total PYY (PYY1-36+PYY3-36) was measured with a porcine antiserum (cat. no T-4093; Bachem). Somatostatin was measured using a side-viewing antibody (code no. 1758-5), detecting all bioactive forms of somatostatin.

B1: RUCILP2: 87 amino acid irisin-like polypeptide cleaved from the Ruminococcus torques FNDC5-like protein RUMTOR_00181; recombinant, 6-His-tagged from E. coli (protein)
chain: APVDVKVSEITETSAKASWKNAADGKEAAGYNVYVDGVKLNKELLTEASCGLTNLKAETTYFVEVTAVDAAGNESVKSEKVTFKTLK
modifications: 6-His tag; Ruminococcus torques
notes: 87 amino acid irisin-like polypeptide cleaved from the Ruminococcus torques FNDC5-like protein RUMTOR_00181; recombinant, 6-His-tagged from E. coli
expression of genes involved in intestinal integration (Caco-2 cell line): increases expression
gut luminal release of Glucagon-like-peptide-2 (GLP-2) (perfused rat colon; luminal infusion): stimulatory effects
GLP-1 secretion (perfused rat colon; luminal perfusion): stimulates
Peptide-YY (PYY) secretion (perfused rat colon; luminal perfusion): stimulates
somatostatin secretion (perfused rat colon; luminal perfusion): stimulates
